Laboratory results reported in the nanobody polyreactivity screen of Harvey et al. (2022).

Assay: yeast display, Sf9 membrane polyspecificity reagent, FACS + sequencing; frameworks hold sequencing errors
How it was run: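 Nanobodies came from a synthetic yeast display library in Saccharomyces cerevisiae BJ5465, induced with galactose for 36–48 hours and stained for 1 hour at 4 °C with 10% biotinylated, detergent-solubilized Sf9 membrane reagent. Cells were enriched on streptavidin microbeads and then FACS-sorted, with low and high (top ~1%) gates set on anti-HA fluorescence for expression and streptavidin fluorescence for reagent binding. Each polyreactivity label reflects the gate a clone came from. Genes were amplified by colony PCR, sequenced by MiSeq 2 × 250 and filtered by CDR length.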
In the case of “QVQLVESGGGLVQAGGSLRLSCAASGYTFVIYAMGSYRQAPGKERELVAAITTIGGRTYYADSVKGRFTISRDNAKNNVYLQMNSLKPEDTAVYYCAADIRSNRLYDGGYWGEGTQVTVSS”, the “polyreactivity (PSR sort gate)” value is reported as “low polyreactivity”. For “QVQLVESGGGLVQAGGSLRLSCAASGYTFVLNAMGWYRQAPGKEREFFAAITWSGGSTYYADSVKGRFTISRDNAKNTVYLQMNSLKPEDTAVYYCARSSRGKLDYWGQGTQVTVSS”, the “polyreactivity (PSR sort gate)” value was “low polyreactivity”. With “QVQLVESGGGLVQAGGSLRLSCAASGYTFVTYAMGWYRQAPGKERELVAAISYTGGSTYYADSVKGRFTISRDNAKNTVYLQMNSLKPEDTAVYYCATLRNHYRYDYWGQGTQVTVSS” the “polyreactivity (PSR sort gate)” value was “low polyreactivity”. In the case of “QVQLVESGGGLVQAGGSLRLSCAASGYTFVYNAMGWYRQAPGKERELVAAITWGGAGTYYADSVKGRFTISRDNAKNTVYLQMNSLKPEDTAVYYCAAPSPRSSAYTYRGDYWGQGTQVTVSS”, the “polyreactivity (PSR sort gate)” value is reported as “low polyreactivity”. With “QVQLVESGGGLVQAGGSLRLSCAASGYTFYAMGWYRQAPGKERELVAAITYRGARTYYADSVKGRFTISRDNAKNTVYLQMNSLKPEDTAVYYCNADYWGQGTEVTVSS” the “polyreactivity (PSR sort gate)” value was “low polyreactivity”. In the case of “QVQLVESGGGLVQAGGSLRLSCAASGYTFYENAMGWYRQAPGKERELVAAITSDGSTYYADSVKGRFTISRDNAKNTVYLQMNSLKPEDTAVYYCAVDEAPPELVYWFFTYYYGGQGTQVTVSS”, the “polyreactivity (PSR sort gate)” value is reported as “low polyreactivity”. In the case of “QVQLVESGGGLVQAGGSLRLSCAASGYTFYVYAMGWYRQAPGKERELVAAIRSGGTTYYADSVKGRFTISRDNAKNTVYLQMNSLKPEDTAVYYCAAVSSDYPFEGNYWGQGTQVTVSS”, the “polyreactivity (PSR sort gate)” value is reported as “low polyreactivity”. With “QVQLVESGGGLVQAGGSLRLSCAASGYTFYVYTMGWYRQAPGKERELVAAISGSGTSTYYADSVKGRFTISRDNAKNTVYFQMNSLKPVDTAVYYCAAEDYSRDVYSYDYWGQGTQVTVSS” the “polyreactivity (PSR sort gate)” value was “low polyreactivity”. For “QVQLVESGGGLVQAGGSLRLSCAASGYTFYYAMGWYRQAPGKERELVAAISAGGGRTYYADSVKGRFTISRDNAKNTVYLQMNSLKPEDTAVYYCAGDYFYSQVAYVYWGQGTQLTVSS”, the “polyreactivity (PSR sort gate)” value was “high polyreactivity”. In the case of “QVQLVESGGGLVQAGGSLRLSCAASGYTIRYYAMGWYRQAPGKERDLVAAISSSGGNTYYADSVKGRFTISSDNAKNTVYLQMNSLKPEDTAVYYCAAAYHPYHRVTGHDGGYDYWGQGTQVTVSS”, the “polyreactivity (PSR sort gate)” value is reported as “low polyreactivity”. For “QVQLVESGGGLVQAGGSLRLSCAASGYTLDGYAMGWYRQAPGKERDFVAAITFRGGGTYYADSVKGRFTISRDNSKNTVYLQMISLKPEDSAVYYCNADTYDPFPWGSDYWGQGTQVNVSS”, the “polyreactivity (PSR sort gate)” value was “high polyreactivity”. With “QVQLVESGGGLVQAGGSLRLSCAASGYTLGVNAMGWYRQAPGKERELVAAINYIDTRTYYADSVKGRFTISRDNAKNTVYLQMNSLKPEDTAVYYCAALPYVPWVKRYYYWGQGTQVTVSS” the “polyreactivity (PSR sort gate)” value was “low polyreactivity”. For “QVQLVESGGGLVQAGGSLRLSCAASGYTLRPNGMGWYRQAPGKERELVAAISSGGSTYYADSVKGRFTISRDNAKNTVYLQMNSLKPEDTAVYYCAAEYWYDYWGQGTQVTVSS”, the “polyreactivity (PSR sort gate)” value was “low polyreactivity”. In the case of “QVQLVESGGGLVQAGGSLRLSCAASGYTSYVYAMGWYRQAPGKERELVAAISLRTASTYYADSVKGRFTISRDNAKNTVYLQMNSLKPEDTAVYYCARGRETYRYCYRLNYWGQGTQVTVSS”, the “polyreactivity (PSR sort gate)” value is reported as “high polyreactivity”. For “QVQLVESGGGLVQAGGSLRLSCAASGYTVGTYDMGWYRQAPGKERELVAAISIGGSTNYADSVKGRFTMSRDNAKNTVYLQMNSLKPDATAVSYCASEVNVGTLLLSVIVEDGDYWGQGTQVTVSS”, the “polyreactivity (PSR sort gate)” value was “low polyreactivity”. With “QVQLVESGGGLVQAGGSLRLSCAASGYTYGNYAMGWYRQAPGKERELVAAITSRGGRTYYADSVKGRFTISRDNAKNTVYLQMNSLKPEDTAVYYCAARGRYKDGYRMDYWGQGTQVTVSS” the “polyreactivity (PSR sort gate)” value was “high polyreactivity”. With “QVQLVESGGGLVQAGGSLRLSCAASGYTYRYYAMGWYRQAPGKERELVAAISASGGITYYADSVKGRFTISRDNAKNTVDLQMNCLNPEDTAVYYCATTGWGSWFDPYDYWGQGTQVTVSS” the “polyreactivity (PSR sort gate)” value was “high polyreactivity”. For “QVQLVESGGGLVQAGGSLRLSCAASRFIFGKYAMGWYRQAPGKEREFVAAITRSGGSTYYADSVKGRFTISRDNAKNTVYLQMNSLKPEDTAVYYCAAYSLKYYNGYDYWGQGTQVTVSS”, the “polyreactivity (PSR sort gate)” value was “high polyreactivity”. In the case of “QVQLVESGGGLVQAGGSLRLSCAASRFIFYYYALGWYRQAPGKERELVAAITWSGGSTYYADSVKGRFTISRDNAKNTVYLQMNSLKPEETAEYYCAVYSTEYKLLWGGISYDYWGQGTQVTVSS”, the “polyreactivity (PSR sort gate)” value is reported as “low polyreactivity”. In the case of “QVQLVESGGGLVQAGGSLRLSCAASRFNFDRNVSGWYRQEPGKERELVAAITGSGGRTYYADSVKGRFKISRDNAKNTVYLQMNSLKPEDTAVYYCARAFGQRRYVYWGQGTQVTVSS”, the “polyreactivity (PSR sort gate)” value is reported as “high polyreactivity”. With “QVQLVESGGGLVQAGGSLRLSCAASRITFRFYAMGWSRQAPGKERELVAVISRGGGTTYYADSVKGRFTISRDNAKNTVYLQMNSLKPEDTAVYYCNAVIAWYRSDEYDYWGQGTQVTVSS” the “polyreactivity (PSR sort gate)” value was “high polyreactivity”. For “QVQLVESGGGLVQAGGSLRLSCAASRMGWYRQAPGKERELVARISGGVSTNYADSVRGRFTISRDNAKNTVYLQMNSVKPEDTAVYYCAADPLDTYDYWGQGTQATVSS”, the “polyreactivity (PSR sort gate)” value was “low polyreactivity”. For “QVQLVESGGGLVQAGGSLRLSCAASRRIFYGYAMGWYRQAPGKERELVAAISLRTGSTFYADSVKGRFTISRDNAMNTVYLQMNSLKPEDTAVYYCAKEESYRPYIYVMDYWGQGTQVTVSS”, the “polyreactivity (PSR sort gate)” value was “low polyreactivity”. In the case of “QVQLVESGGGLVQAGGSLRLSCAASRRISHYYAMGWYRQAPGKERALVASIRISGGSTYYADSVKGRFTISRDYAKNTVFLQMNSLKPEDTAVYYCATLGYNWRRLYYWGQGTEVTVSS”, the “polyreactivity (PSR sort gate)” value is reported as “high polyreactivity”. With “QVQLVESGGGLVQAGGSLRLSCAASRRIYGGNAMGLNRKAPGKERELVAAINSSGGRTYYADSVKGRFKISRDNAKNTVYLQMKSLKTEDTAVYYCAGRVGCNWYDYWGQGTQVPVSS” the “polyreactivity (PSR sort gate)” value was “high polyreactivity”. In the case of “QVQLVESGGGLVQAGGSLRLSCAASRRTLGKYVMGRYRQQPGKERELVPAIRSGTNTYYADSVKGRFTISRDNAKNTVYLQMNSLIPEDTAVYYCGAARYTKFDYWGQGTQLTVSS”, the “polyreactivity (PSR sort gate)” value is reported as “high polyreactivity”. With “QVQLVESGGGLVQAGGSLRLSCAASRSIFEANDMGWYRQAQGKERELVAAIDANTGSTYYADSVKGRFTISRDNAKNTVYLQMNRLKPEDTAVYYCNAQVYLHTAYDYWGQGTQVTVSS” the “polyreactivity (PSR sort gate)” value was “low polyreactivity”. With “QVQLVESGGGLVQAGGSLRLSCAASRSTFAYYSMGWYRKEPGKETELVAAITRGGSTNYADSVKGRFRISRDNAKNTVLLQMNSLKPEDTAVYYCAAGDVQDYEYDYLGQGTQVTVSS” the “polyreactivity (PSR sort gate)” value was “low polyreactivity”. In the case of “QVQLVESGGGLVQAGGSLRLSCAASRSTFPWYAMGWYRQAPGKERELVARINSGGSTTYADSVKGRFTISRDNAKNTVYLQMNSLKPEDTAVYYCAADRWYSTYLASYYGYDYWGQGTQVTVSS”, the “polyreactivity (PSR sort gate)” value is reported as “low polyreactivity”. In the case of “QVQLVESGGGLVQAGGSLRLSCAASRSTLLSNAMGWYTQAPGKERELVAAINYSGGRTYYADSVKGRFTISRDNAKNTVYLQINSLKPVDTAVYYCNALSSGHGSSSRYDYWGQGTQVTVSS”, the “polyreactivity (PSR sort gate)” value is reported as “low polyreactivity”. For “QVQLVESGGGLVQAGGSLRLSCAASRTIIASYAMGSYRQAPGKERELVAAISRSGGRTYYADSVKGRFTISRDNAQNTVYLQMNSLKPEDSAVYYCNVLQPQSSDWLITYDYWGQGTQVTVSS”, the “polyreactivity (PSR sort gate)” value was “high polyreactivity”. For “QVQLVESGGGLVQAGGSLRLSCAASRYYAMGWYRQAPGKERELVPAITWSGGTTYYADSVKGRFTISRYNGKNTVYLQMNSLTPEDTAVYYCNADFVRFTRHKKYYYWGQGTQVTVSS”, the “polyreactivity (PSR sort gate)” value was “low polyreactivity”. In the case of “QVQLVESGGGLVQAGGSLRLSCAASVFTFDENAMGWYRQAPGINYSGASTYYADSVKGRFTISRDNAKNTVYLQMNSLKPDDTAVYYCAAEVVAQMNYWGQGTQVTVSS”, the “polyreactivity (PSR sort gate)” value is reported as “low polyreactivity”. With “QVQLVESGGGLVQAGGSLRLSCAASVFTFSRYAMGWYRQAPGKERELVAAITSRGGSTYYADSVKGRFTISRDNAKNTVYLQMNSLKPEDTAVYYCAASGRNRKDGLYEYYYWGQGTQVTVSS” the “polyreactivity (PSR sort gate)” value was “high polyreactivity”. With “QVQLVESGGGLVQAGGSLRLSCAASVFTFWWYDMGWYIQAPGKERELVAAISRGGSTYYADSVKGRFTISRDNAKNTVNLQMNSLKPEDTAVYYCAADTTYGINRREYWGQGTQVTVSS” the “polyreactivity (PSR sort gate)” value was “low polyreactivity”. In the case of “QVQLVESGGGLVQAGGSLRLSCAASVGIFIYNAMGWYRQAPGKEREFVAAINISGGNTYYADSVKGRFTISRDNAKNTVFLQMNSLKPEDTGVYYCAARYASCWWIRYYYWGQGTQVTVSS”, the “polyreactivity (PSR sort gate)” value is reported as “high polyreactivity”. In the case of “QVQLVESGGGLVQAGGSLRLSCAASVIIFSYNAMGWYRQAPGKERELVAAISYSGGSTYYADSVKGRFTISRDNAKNTVYLQMNSLKPEDTAVYYCAAEKYLGELDYWGQGTQVTVSS”, the “polyreactivity (PSR sort gate)” value is reported as “low polyreactivity”. In the case of “QVQLVESGGGLVQAGGSLRLSCAASVITFGANTMGWDIQAPGKERELVATLTSSGGSTYYADSVKGRFTISRDNAKNTVYLQMNSLKPEDTAVYYCAASDLRDRGNYVYLPSEYWGLGTQVTVSS”, the “polyreactivity (PSR sort gate)” value is reported as “low polyreactivity”. For “QVQLVESGGGLVQAGGSLRLSCAASVITFIDYARGWYRQAPGKERELVAAINSSGGGTYYADSVKGRFTISRDNAKNTVYLQMNSLKPEDTAVYYCAADFWYWGQIDSSDYWGQGTQVTVSS”, the “polyreactivity (PSR sort gate)” value was “low polyreactivity”. With “QVQLVESGGGLVQAGGSLRLSCAASVLIFGPYTMGWYRQAPGKEREFDAAINRSGGSTYYADSVKGRFTISRDNAKNTVYLQMNSLKPEDTAVYYCNAEQYGKQWYSGYNYDYWGQGTQVTVSS” the “polyreactivity (PSR sort gate)” value was “high polyreactivity”. With “QVQLVESGGGLVQAGGSLRLSCAASVLIIGYNSMGWYRQAPGTERELVASIRYSGGTTYYADSVKGRFTISRDNEKNTVNLQMNSVKPEDTAVYFCATRVTYRRRFDYWGQGTQVTVSS” the “polyreactivity (PSR sort gate)” value was “high polyreactivity”.
